Laboratory results published in publication PMC8748714 (2022).
No end group written: not given here.

Assays:
[1] = target: T1, GLP-1R L141A (Homo sapiens)
T1 chain: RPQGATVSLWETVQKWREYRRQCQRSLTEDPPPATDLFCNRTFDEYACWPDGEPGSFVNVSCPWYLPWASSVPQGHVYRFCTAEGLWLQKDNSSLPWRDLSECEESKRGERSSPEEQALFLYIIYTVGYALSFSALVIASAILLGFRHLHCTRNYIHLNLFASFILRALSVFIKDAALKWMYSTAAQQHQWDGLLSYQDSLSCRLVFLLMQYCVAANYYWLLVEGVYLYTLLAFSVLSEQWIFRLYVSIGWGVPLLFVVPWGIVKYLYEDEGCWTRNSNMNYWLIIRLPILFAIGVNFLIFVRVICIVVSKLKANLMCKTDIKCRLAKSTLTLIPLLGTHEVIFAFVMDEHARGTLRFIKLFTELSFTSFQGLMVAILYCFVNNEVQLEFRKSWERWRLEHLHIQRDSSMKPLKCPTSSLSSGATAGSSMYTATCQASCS

[2] = target: T2, GLP-1R D198A (Homo sapiens)
T2 chain: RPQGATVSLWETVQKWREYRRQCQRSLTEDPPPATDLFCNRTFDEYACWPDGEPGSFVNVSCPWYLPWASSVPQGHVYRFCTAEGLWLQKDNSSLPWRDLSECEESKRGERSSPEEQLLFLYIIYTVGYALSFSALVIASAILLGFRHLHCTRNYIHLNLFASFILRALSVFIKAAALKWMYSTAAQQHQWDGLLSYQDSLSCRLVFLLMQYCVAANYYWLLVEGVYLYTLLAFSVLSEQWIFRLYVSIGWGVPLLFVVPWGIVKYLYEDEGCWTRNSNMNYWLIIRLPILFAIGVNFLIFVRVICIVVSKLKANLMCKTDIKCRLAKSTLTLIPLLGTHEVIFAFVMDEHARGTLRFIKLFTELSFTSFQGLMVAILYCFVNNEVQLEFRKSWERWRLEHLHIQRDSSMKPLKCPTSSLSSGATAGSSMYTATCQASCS

[3] = target: T3, GLP-1R V194A (Homo sapiens)
T3 chain: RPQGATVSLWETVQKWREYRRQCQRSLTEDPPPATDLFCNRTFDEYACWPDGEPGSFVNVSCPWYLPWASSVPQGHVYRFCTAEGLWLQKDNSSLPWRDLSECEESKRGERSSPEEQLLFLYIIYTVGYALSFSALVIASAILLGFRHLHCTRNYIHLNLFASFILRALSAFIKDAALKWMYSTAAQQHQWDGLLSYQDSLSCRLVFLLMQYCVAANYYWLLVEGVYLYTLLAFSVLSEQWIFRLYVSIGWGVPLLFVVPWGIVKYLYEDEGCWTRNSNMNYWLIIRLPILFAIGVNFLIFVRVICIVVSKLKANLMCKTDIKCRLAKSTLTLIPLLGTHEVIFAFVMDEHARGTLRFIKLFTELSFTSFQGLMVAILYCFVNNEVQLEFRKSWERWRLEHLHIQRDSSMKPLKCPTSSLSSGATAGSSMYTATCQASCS

[4] = target: T4, GLP-1R Q211A (Homo sapiens)
T4 chain: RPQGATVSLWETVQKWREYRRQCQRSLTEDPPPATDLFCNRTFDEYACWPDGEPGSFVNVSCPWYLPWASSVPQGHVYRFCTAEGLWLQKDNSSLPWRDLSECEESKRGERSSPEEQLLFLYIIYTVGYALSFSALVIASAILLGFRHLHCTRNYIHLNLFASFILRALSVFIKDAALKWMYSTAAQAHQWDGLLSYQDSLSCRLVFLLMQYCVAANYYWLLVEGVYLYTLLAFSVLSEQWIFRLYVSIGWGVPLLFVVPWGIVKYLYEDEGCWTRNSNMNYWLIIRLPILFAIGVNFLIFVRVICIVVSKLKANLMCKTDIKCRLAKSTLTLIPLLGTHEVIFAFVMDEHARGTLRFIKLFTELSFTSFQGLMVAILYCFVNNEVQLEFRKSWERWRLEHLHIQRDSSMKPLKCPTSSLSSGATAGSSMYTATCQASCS

[5] = target: T5, GLP-1R K202A (Homo sapiens)
T5 chain: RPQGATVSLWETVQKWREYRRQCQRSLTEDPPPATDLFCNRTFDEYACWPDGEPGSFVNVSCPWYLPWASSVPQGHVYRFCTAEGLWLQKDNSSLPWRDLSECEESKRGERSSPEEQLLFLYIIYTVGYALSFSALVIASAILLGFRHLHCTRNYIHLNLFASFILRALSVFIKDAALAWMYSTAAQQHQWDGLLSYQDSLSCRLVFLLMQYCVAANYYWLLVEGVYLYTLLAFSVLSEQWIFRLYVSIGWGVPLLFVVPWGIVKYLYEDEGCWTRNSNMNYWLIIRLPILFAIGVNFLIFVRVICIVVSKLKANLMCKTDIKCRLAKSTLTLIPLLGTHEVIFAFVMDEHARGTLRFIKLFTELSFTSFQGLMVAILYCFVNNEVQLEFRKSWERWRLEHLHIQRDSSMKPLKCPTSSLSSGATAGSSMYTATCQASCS

[6] = target: T6, GLP-1R M204A (Homo sapiens)
T6 chain: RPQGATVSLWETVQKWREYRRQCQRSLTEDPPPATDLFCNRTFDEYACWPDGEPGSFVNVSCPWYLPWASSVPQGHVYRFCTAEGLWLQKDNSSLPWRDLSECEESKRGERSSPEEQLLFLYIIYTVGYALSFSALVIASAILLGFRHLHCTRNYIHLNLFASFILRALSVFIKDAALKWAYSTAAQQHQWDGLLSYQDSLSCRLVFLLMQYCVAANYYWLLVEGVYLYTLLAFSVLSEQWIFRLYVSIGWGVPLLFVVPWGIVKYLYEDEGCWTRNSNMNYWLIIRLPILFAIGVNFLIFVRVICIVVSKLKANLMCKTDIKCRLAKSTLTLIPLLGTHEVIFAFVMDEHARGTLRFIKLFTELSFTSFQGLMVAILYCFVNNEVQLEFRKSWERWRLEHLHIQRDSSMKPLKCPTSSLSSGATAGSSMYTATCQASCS

B1: glucagon-like peptide-1 (peptide)
chain: HAEGTFTSDVSSYLEGQAAKEFIAWLVKGR
modifications: not fully specified (C-terminus)
- IC50 [1]: 14.1 nM
- IC50 [2]: 155 nM
- IC50 [3]: 6.17 nM
- IC50 [4]: 2.34 nM
- IC50 [5]: 6.03 nM
- IC50 [6]: 79.4 nM

B2: oxyntomodulin (peptide)
peptide: HSQGTFTSDYSKYLDSRRAQDFVQWLMNTKRNRNNIA
- IC50 [1]: 603 nM
- IC50 [2]: 708 nM
- IC50 [3]: 77.6 nM
- IC50 [4]: 19.5 nM
- IC50 [5]: 191 nM
- IC50 [6]: 741 nM
